As a reminder, the Kd is the constant that tells how readily two partners part at equilibrium. Read a high Kd as lower affinity.

One assay addresses T1, human IL6 (human, UniProt P05231 30-212).
T1 construct: Bought recombinant protein
Put plainly: Biacore SPR, Fab captured by anti-light chain antibody, IL6 as analyte. The protocol:
Antibody libraries were selected against human VEGF (Peprotech catalogue number 100-20) and human IL6 (Peprotech catalogue number 200-06). Of the isolated parental antibody clones, IL6P and VEGFP were combined into the bi-specific antibody clone VH6L. […] To assess the affinities of parental and bi-specific antibodies, Biacore™ analysis was performed in order to analyze the binding behaviour of IL6P, VH6L and VEGFP. For this, an anti-light chain capture antibody was immobilized onto a CM5 chip using amine-coupling, resulting in 12000 RU. Fab fragments were captured to a level of 400-500 RU and a concentration series of IL6 and VEGF, ranging from 0 to 450 nM, was passed over the chip. As depicted in FIG. 7, clone IL6P binds to IL6, but not to VEGF, clone VEGFP binds to VEGF, but not to IL6, and the combined clone VH6L binds to both IL6 and VEGF.
A general note: In SPR one partner is held on a chip, and binding of the other changes the refractive index at the surface.

Another assay deals with T2, HEL (UniProt P00698 19-147, biotinylated).
T2 construct: Control target of the ELISA
T2 sequence (P00698 19-147): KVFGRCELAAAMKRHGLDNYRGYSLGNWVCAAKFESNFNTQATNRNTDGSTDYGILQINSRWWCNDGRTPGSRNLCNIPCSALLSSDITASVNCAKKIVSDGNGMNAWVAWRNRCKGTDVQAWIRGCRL
Put plainly: ELISA, biotinylated target (20 nM) on streptavidin plates, Fab in culture supernatant. The method, then: To test the specificity of antibodies selected from Lib1 and Lib2 libraries against one target and the specificity of bi-specific antibodies designed to bind both targets, Enzyme-linked immunosorbent assays (ELISAs) were performed using standard methods. Briefly, Nunc Maxisorp plates were prepared by coating with Streptavidin dissolved in 1×PBS, binding 20 nM of biotinylated targets (GST, MBP, HEL or VEGF) in PBS-T (0.3% Tween-20 dissolved in 1×PBS) and blocking with 5% skimmed milk powder in PBS-T. Thereafter, 50 μl of E. coli TG1 culture supernatant expressing antibody clones as soluble Fab fragments in microtiter plates were added, followed by detection of bound Fab fragments using goat anti-human kappa light chain polyclonal antibody (Sigma) or mouse anti-Strep tag antibody (IBA) specific for a Strep-Il tag fused to the C-terminus of the heavy chain in the soluble Fab expression construct. Secondary antibodies were detected using HRP-labeled tertiary antibodies, ELISAs were developed using TMB substrate (KPL), and signal was quantified using a Victor plate reader from PerkinElmer set to 450 nm. […] None of the clones bound the control targets HEL or VEGF (FIG. 5). Experiments were performed in duplicate using two independent colonies for each Fab.

Numbering of substitutions follows the chain as printed.

B1: IL6P (Fab, V domains shown)
VH: EVQLVESGGGLVQPGGSLRLSCAASGFTFSSYAMSWIRQAPGKGLEWIGQISGSGGSTVYNYNVLGRFTISRDNSKNTLYLQMNSLRAEDTAVYYCARDSGYFDIWGQGTLVTVSS
VL: NIQKTQSPSSLSASVGDRVTITCRALWHISSYLAWYQQKPGKAPKLLIYAASSLYSGVPSRFSGSGSGTDFTLTISSLQPEDFATYYCQQYSGLPYTFGQGTKVEIKR
B1 yielded a dissociation constant Kd with human IL6 of 38 nM.

B2: Dummy 1 Fab (Fab, V domains shown)
VH: B1 VH with V59Y, Y62D
VL: DTQMTQSPSSLSASVGDRVTITCRASQSISSYLAWYQQKPGKAPKLLIYAASSLYSGVPSRFSGSGSGTDFTLTISSLQPEDFATYYCQQYSSLPYTFGQGTKVEIK
notes: Tested as soluble Fab in E. coli TG1 culture supernatant; Strep-II tag fused to the C-terminus of the heavy chain
B2: in the assay with HEL, the binding result is listed as “no binding”.

B3: VH6L (bispecific antibody, V domains shown)
VH: B1 VH with E1Y, V2Y, S25D, T28L, S31G, S100T, I105H
VL: B2 VL with D1N, T2I, M4K, S26L, Q27W, S28H, S53H, Y55H, S56Y, S93G
notes: Combination of IL6P and VEGFP; two paratopes in one VH-VL pair; tested as Fab fragment; also called bi-specific antibody clone VH6L; combined clone VH6L
B3 had a Kd with human IL6 of 40 nM.

Values taken from US20140206846A1 (published 2014).
